Consider 16 variants from FireProtDB (doi:10.1016/0022-2836(92)90562-x).

The chains are these.
B1: Ribonuclease, P00648 (parent)
chain: MMKMEGIALKKRLSWISVCLLVLVSAAGMLFSTAAKTETSSHKAHTEAQVINTFDGVADYLQTYHKLPDNYITKSEAQALGWVASKGNLADVAPGKSIGGDIFSNREGKLPGKSGRTWREADINYTSGFRNSDRILYSSDWLIYKTTDHYQTFTKIR

The series covers variants of B1. The settings on record: Bacillus amyloliquefaciens; pH 6.3; 25 °C; Urea; Fluorescence; MES-NaOH 450 mM; reversible: yes; structure 1BNI; whole UniProt chain shown.

Regarding MMKMEGIALKKRLSWISVCLLVLVSAAGMLFSTAAKTETSSHKAHTEAQVVNTFDGVADYLQTYHKLPDNYITKSEAQALGWVASKGNLADVAPGKSIGGDIFSNREGKLPGKSGRTWREADINYTSGFRNSDRILYSSDWLIYKTTDHYQTFTKIR [I51V], the “ddG of mutation (higher = less stable)” value is 0.81 kcal/mol, the denaturant m value came to 1.88 kcal/mol/M, the “denaturant midpoint (higher = more stable)” value (from here on “denaturant midpoint”) turned out to be 4.2 M and the unfolding free energy came to 8.01 kcal/mol.

Turning to MMKMEGIALKKRLSWISVCLLVLVSAAGMLFSTAAKTETSSHKAHTEAQVINTFDGVADYLQTYHKLPDNYITKSEAQALGWAASKGNLADVAPGKSIGGDIFSNREGKLPGKSGRTWREADINYTSGFRNSDRILYSSDWLIYKTTDHYQTFTKIR [V83A], the “ddG of mutation (higher = less stable)” value amounted to 1.68 kcal/mol, the denaturant m value was determined as 1.83 kcal/mol/M, the “denaturant midpoint” value was found to be 3.9 M and the unfolding free energy is 7.14 kcal/mol.

As for MMKMEGIALKKRLSWISVCLLVLVSAAGMLFSTAAKTETSSHKAHTEAQVINTFDGVADYLQTYHKLPDNYITKSEAQALGWTASKGNLADVAPGKSIGGDIFSNREGKLPGKSGRTWREADINYTSGFRNSDRILYSSDWLIYKTTDHYQTFTKIR [V83T], the “ddG of mutation (higher = less stable)” value is 1.05 kcal/mol, the denaturant m value was 1.95 kcal/mol/M, the “denaturant midpoint” value stood at 3.9 M and the unfolding free energy was determined as 7.77 kcal/mol.

Consider MMKMEGIALKKRLSWISVCLLVLVSAAGMLFSTAAKTETSSHKAHTEAQVINTFAGVAAYLQTYHKLPDNYITKSEAQALGWVASKGNLADVAPGKSIGGDIFSNREGKLPGKSGRTWREADINYTSGFRNSDRILYSSDWLIYKTTDHYQTFTKIA [D55A D59A R157A], for which the “ddG of mutation (higher = less stable)” value is -0.18 kcal/mol, the denaturant m value was found to be 1.94 kcal/mol/M, the “denaturant midpoint” value is 4.63 M and the unfolding free energy was determined as 9 kcal/mol.

Regarding MMKMEGIALKKRLSWISVCLLVLVSAAGMLFSTAAKTETSSHKAHTEAQVINTFDGVADYLQTYHKLPDNYITKSEASALGWVASKGNLADVAPGKSIGGDIFSNREGKLPGKSGRTWREADINYTSGFRNSDRILYSSDWLIYKTTDHYQTFTKIR [Q78S], the “ddG of mutation (higher = less stable)” value is -0.07 kcal/mol, the denaturant m value came out at 2 kcal/mol/M, the “denaturant midpoint” value was determined as 4.4 M and the unfolding free energy was 8.89 kcal/mol.

For MMKMEGIALKKRLSWISVCLLVLVSAAGMLFSTAAKTETSSHKAHTEAQVIATFDGVADYLQTYHKLPDNYITKSEAQALGWVASKGNLADVAPGKSIGGDIFSNREGKLPGKSGRTWREADINYTSGFRNSDRILYSSDWLIYKTTDHYQTFTKIR [N52A], the “ddG of mutation (higher = less stable)” value turned out to be 1.59 kcal/mol, the denaturant m value stood at 2 kcal/mol/M, the “denaturant midpoint” value was 3.6 M and the unfolding free energy stood at 7.23 kcal/mol.

Regarding MMKMEGIALKKRLSWISVCLLVLVSAAGMLFSTAAKTETSSHKAHTEAQVINTFDGVADYLQRYHKLPDNYITKSEAQALGWVASKGNLADVAPGKSIGGDIFSNREGKLPGKSGRTWREADINYTSGFRNSDRILYSSDWLIYKTTDHYQTFTKIR [T63R], the “ddG of mutation (higher = less stable)” value was -0.74 kcal/mol, the denaturant m value is 1.99 kcal/mol/M, the “denaturant midpoint” value amounted to 4.8 M and the unfolding free energy was 9.56 kcal/mol.

For the variant MMKMEGIALKKRLSWISVCLLVLVSAAGMLFSTAAKTETSSHKAHTEAQVINTFDGVADYLQSYHKLPDNYITKSEAQALGWVASKGNLADVAPGKSIGGDIFSNREGKLPGKSGRTWREADINYTSGFRNSDRILYSSDWLIYKTTDHYQTFTKIR [T63S], the “ddG of mutation (higher = less stable)” value stood at 1.36 kcal/mol, the denaturant m value came to 2.03 kcal/mol/M, the “denaturant midpoint” value was 3.6 M and the unfolding free energy came to 7.46 kcal/mol.

Consider MMKMEGIALKKRLSWISVCLLVLVSAAGMLFSTAAKTETSSHKAHTEAQVINGFDGVADYLQTYHKLPDNYITKSEAQALGWVASKGNLADVAPGKSIGGDIFSNREGKLPGKSGRTWREADINYTSGFRNSDRILYSSDWLIYKTTDHYQTFTKIR [T53G], for which the “ddG of mutation (higher = less stable)” value came out at 0.61 kcal/mol, the denaturant m value is 2.08 kcal/mol/M, the “denaturant midpoint” value stood at 3.9 M and the unfolding free energy was 8.21 kcal/mol.

Consider MMKMEGIALKKRLSWISVCLLVLVSAAGMLFSTAAKTETSSHKAHTEAQVINAFDGVADYLQTYHKLPDNYITKSEAQALGWVASKGNLADVAPGKSIGGDIFSNREGKLPGKSGRTWREADINYTSGFRNSDRILYSSDWLIYKTTDHYQTFTKIR [T53A], for which the “ddG of mutation (higher = less stable)” value was 2.02 kcal/mol, the denaturant m value was found to be 1.97 kcal/mol/M, the “denaturant midpoint” value stood at 3.4 M and the unfolding free energy stood at 6.8 kcal/mol.

Regarding MMKMEGIALKKRLSWISVCLLVLVSAAGMLFSTAAKTETSSHKAHTEAQVINTFDGVADYAQTYHKLPDNYITKSEAQALGWVASKGNLADVAPGKSIGGDIFSNREGKLPGKSGRTWREADINYTSGFRNSDRILYSSDWLIYKTTDHYQTFTKIR [L61A], the “ddG of mutation (higher = less stable)” value came to 4.53 kcal/mol, the denaturant m value turned out to be 1.87 kcal/mol/M, the “denaturant midpoint” value was found to be 2.2 M and the unfolding free energy worked out at 4.29 kcal/mol.

Consider MMKMEGIALKKRLSWISVCLLVLVSAAGMLFSTAAKTETSSHKAHTEAQVINTFDGVADALQTYHKLPDNYITKSEAQALGWVASKGNLADVAPGKSIGGDIFSNREGKLPGKSGRTWREADINYTSGFRNSDRILYSSDWLIYKTTDHYQTFTKIR [Y60A], for which the “ddG of mutation (higher = less stable)” value worked out at 3 kcal/mol, the denaturant m value stood at 2.03 kcal/mol/M, the “denaturant midpoint” value stood at 2.8 M and the unfolding free energy worked out at 5.82 kcal/mol.

Regarding MMKMEGIALKKRLSWISVCLLVLVSAAGMLFSTAAKTETSSHKAHTEAQVINTFDGVADYLQTYHKLPDNYITKSGAQALGWVASKGNLADVAPGKSIGGDIFSNREGKLPGKSGRTWREADINYTSGFRNSDRILYSSDWLIYKTTDHYQTFTKIR [E76G], the “ddG of mutation (higher = less stable)” value came to 2.05 kcal/mol, the denaturant m value came out at 1.84 kcal/mol/M, the “denaturant midpoint” value worked out at 3.6 M and the unfolding free energy was 6.77 kcal/mol.

For the variant MMKMEGIALKKRLSWISVCLLVLVSAAGMLFSTAAKTETSSHKAHTEAQVINTFDGVADYLQTYHKLPDNYATKSEAQALGWVASKGNLADVAPGKSIGGDIFSNREGKLPGKSGRTWREADINYTSGFRNSDRILYSSDWLIYKTTDHYQTFTKIR [I72A], the “ddG of mutation (higher = less stable)” value worked out at 3.68 kcal/mol, the denaturant m value stood at 1.85 kcal/mol/M, the “denaturant midpoint” value is 2.7 M and the unfolding free energy was found to be 5.14 kcal/mol.

Take MMKMEGIALKKRLSWISVCLLVLVSAAGMLFSTAAKTETSSHKAHTEAQVINTFDGVADYLQTYHKLPDNYVTKSEAQALGWVASKGNLADVAPGKSIGGDIFSNREGKLPGKSGRTWREADINYTSGFRNSDRILYSSDWLIYKTTDHYQTFTKIR [I72V]: the “ddG of mutation (higher = less stable)” value was 0.83 kcal/mol, the denaturant m value is 2 kcal/mol/M, the “denaturant midpoint” value amounted to 4 M and the unfolding free energy was determined as 7.99 kcal/mol.

For MMKMEGIALKKRLSWISVCLLVLVSAAGMLFSTAAKTETSSHKAHTEAQVINTFDGVADYLQTAHKLPDNYITKSEAQALGWVASKGNLADVAPGKSIGGDIFSNREGKLPGKSGRTWREADINYTSGFRNSDRILYSSDWLIYKTTDHYQTFTKIR [Y64A], the “ddG of mutation (higher = less stable)” value came out at 1.67 kcal/mol, the denaturant m value amounted to 2.02 kcal/mol/M, the “denaturant midpoint” value worked out at 3.5 M and the unfolding free energy turned out to be 7.15 kcal/mol.
